Results published in US20230374068A1, “COMPOSITIONS AND METHODS FOR TREATING A DISEASE” (RAMOT AT TEL AVIV UNIVERSITY LTD., priority 2021, published 2023).
Changes are numbered by the printed parent chain.

T1: T7-RILP(L231A) (pEF-T7-RILP(L231A)) (mouse, UniProt Q5ND29 1-369)
T1 construct: RHD mutant; expressed in transfected RBL cells
T1 sequence (looked up): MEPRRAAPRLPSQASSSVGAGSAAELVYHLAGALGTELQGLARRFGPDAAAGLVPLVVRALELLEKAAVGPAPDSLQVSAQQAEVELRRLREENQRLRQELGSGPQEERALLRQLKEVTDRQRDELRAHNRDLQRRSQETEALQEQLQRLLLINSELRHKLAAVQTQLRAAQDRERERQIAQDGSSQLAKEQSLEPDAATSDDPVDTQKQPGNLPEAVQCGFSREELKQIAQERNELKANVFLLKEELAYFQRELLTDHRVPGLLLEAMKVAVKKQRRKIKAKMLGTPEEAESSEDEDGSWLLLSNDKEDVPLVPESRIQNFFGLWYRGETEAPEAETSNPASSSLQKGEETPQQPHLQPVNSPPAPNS

T2: endogenous Rab12 of RBL cells (rat, UniProt P35284 49-291, limits assumed)
T2 construct: Total Rab12 pulled down from cell lysates (blot reprobed with anti-Rab12)
T2 sequence (looked up): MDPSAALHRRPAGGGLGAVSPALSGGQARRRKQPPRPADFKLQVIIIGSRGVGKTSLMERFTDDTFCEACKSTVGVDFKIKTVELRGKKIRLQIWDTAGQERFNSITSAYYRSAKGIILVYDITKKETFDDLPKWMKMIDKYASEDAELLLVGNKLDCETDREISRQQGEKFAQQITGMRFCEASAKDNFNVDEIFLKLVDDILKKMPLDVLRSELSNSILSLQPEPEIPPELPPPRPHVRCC

T3: T7-RILP-L1 (pEF-T7-RILP-L1) (mouse, UniProt Q9JJC6 1-406)
T3 construct: The pEF-T7 plasmid was 'prepared as previously described'; also called T7-tagged RILP-L1; RILP-like 1
T3 sequence (looked up): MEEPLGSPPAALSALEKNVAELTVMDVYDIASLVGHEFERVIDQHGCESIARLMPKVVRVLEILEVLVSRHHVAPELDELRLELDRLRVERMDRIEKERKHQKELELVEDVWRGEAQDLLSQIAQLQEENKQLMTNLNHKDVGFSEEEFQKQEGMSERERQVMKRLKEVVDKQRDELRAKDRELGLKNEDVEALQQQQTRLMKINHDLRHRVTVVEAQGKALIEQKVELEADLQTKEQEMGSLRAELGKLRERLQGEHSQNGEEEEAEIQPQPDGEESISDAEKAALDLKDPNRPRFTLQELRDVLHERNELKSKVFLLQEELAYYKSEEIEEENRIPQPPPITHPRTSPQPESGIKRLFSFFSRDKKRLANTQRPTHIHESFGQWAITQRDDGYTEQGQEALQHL

T4: T7-RILP(E233A) (pEF-T7-RILP(E233A)) (mouse, UniProt Q5ND29 1-369)
T4 construct: RHD mutant; expressed in transfected RBL cells
T4 sequence (looked up): T1 sequence (looked up) with A231L, E233A

T5: GFP-RILP-L1 (mouse RILP-like 1 in pEGFP-C1) (mouse, UniProt Q9JJC6 1-406)
T5 construct: Expressed in transfected RBL cells; tested in cell lysate; also called pEGFP-C1-RILP-L1; not shown: EGFP of the pEGFP-C1 vector
T5 sequence (looked up): T3 sequence (looked up)

B1: GST-RILP-L2 (pGEX-4T-3-RILP-L2) (other, mouse, UniProt Q99LE1 1-197, looked up)
chain: MEDHPVREEEDGEEDEGALAKSPLQLTTDDVYDISYVVGRELMALGSDPRVTRLQFKIVRVMEMLETLVNEGSLAVEELRMERDNLKQEVEGLRKAGVSGAQVNLGPDKMVVDLTDPNRPRFTLQELREVLQERNKLKSQLLLVQEELQCYRSGLLPPRETPGGRREKDAVVAMGNGEKEERTIMKKLFSFRSGKHT
notes: Immobilized on glutathione agarose beads; not shown: glutathione S-transferase (GST) encoded by the pGEX-4T-3 vector
B2: GFP-RILP (mouse RILP in pEGFP-C1) (other, UniProt Q5ND29 1-369, looked up)
chain: T1 sequence (looked up) with A231L
notes: Expressed in transfected RBL cells; tested in cell lysate; also called GFP-fused RILP; pEGFP-C1-RILP; not shown: EGFP of the pEGFP-C1 vector
B3: GST-Rab12 (pGEX-4T-3-Rab12) (other, mouse, UniProt P35283 49-291, looked up)
chain: T2 sequence (looked up) with G15S, S214N
notes: Immobilized on glutathione agarose beads; pulldown in the presence of 0.5 mM GTPgammaS; also called immobilized Rab12; not shown: glutathione S-transferase (GST) encoded by the pGEX-4T-3 vector
B4: T7-RILP-L2 (pEF-T7-RILP-L2) (other, mouse, UniProt Q99LE1 1-197, looked up, not shown: small tags and cut ends)
chain: B1 chain
notes: The pEF-T7 plasmid was 'prepared as previously described'; also called T7-tagged RILP-L2; RILP-like 2

How the values were obtained:
[1] = target: T1, T7-RILP(L231A) (pEF-T7-RILP(L231A)); assay: cell-based or functional assay
[2] = target: T7-RILP (pEF-T7-RILP) (mouse) (UniProt Q5ND29); assay: cell-based or functional assay
[3] = target: T2, endogenous Rab12 of RBL cells; assay: GST pulldown of endogenous Rab12 from RBL cell lysates, anti-Rab12 immunoblot
Description: Cells were then lysed and 500 μg of cell lysate were incubated overnight at 4° C. with either GST, GST-RILP, GST-RILP-L1 or GST-RILP-L2, immobilized on glutathione agarose beads, as indicated. At the end of the incubation period, beads were sedimented by centrifugation at 5000×g for 5 minutes at 4° C., washed four times with buffer containing 50 mM Hepes pH 7.4, 150 mM NaCl, 1 mM MgCl₂, 0.2% Triton X-100, protease inhibitor mixture, 1 mM PMSF, 2 mM Na₃VO₄, 10 mM NaPPi and 80 mM β-glycerophosphate and suspended in 1× sample buffer and boiled for 7 minutes. Proteins were resolved by SDS-PAGE and analyzed by immunoblotting with the anti-phosphoRab12 antibodies, followed by reprobing with anti Rab12 antibodies, as indicated. Representative blots are shown. Similar results were obtained in two separate experiments.
Next, it was assessed whether […] any impact on Rab12 interactions with its RILP family effectors. To this end, lysates derived from resting RBL cells or RBL cells that were triggered with either IgE/Ag or Ion/TPA, were subjected to pulldown assays by chimeric proteins consisting of GST-fused to either RILP, RILP-L1, or RILP-L2, or control GST. […] Therefore, under these conditions, the efficacy of Rab12-effector interactions was RILP-L1>RILP>>>RILP-L2.

[4] = target: T3, T7-RILP-L1 (pEF-T7-RILP-L1); assay: co-immunoprecipitation from co-transfected RBL cell lysates, IP anti-GFP, blot anti-T7
Description: (§1) FIGS. 1A, 1B show the results of immunoprecipitations in which cell lysates derived from the rat mast cell line RBL-2H3, herein referred to as RBL cells, that were co-transfected with 17.5 μg of pEGFP plasmid encoding either RILP, RILP-L1 or RILP-L2 and 17.5 μg of pEF plasmid encoding either T7-RILP, T7-RILP-L1 or T7-RILP-L2, as indicated, were subjected to immunoprecipitation with rabbit polyclonal antibodies directed against GFP. FIGS. 1C, 1D show the results of immunoprecipitations in which the RBL cell lysates described above were subjected to immunoprecipitation with mouse monoclonal antibodies directed against the T7 epitope. Immune complexes were then analyzed by SDS-PAGE and immunoblotting with mouse monoclonal anti T7 antibodies, followed by reprobing with polyclonal anti GFP antibodies (FIGS. 1A, 1B), or with polyclonal anti GFP antibodies followed by reprobing with monoclonal anti T7 antibodies (FIGS. 1C, 1D), as indicated. Input=10% of total protein.
(§2) RBL cell lysates (500 μg) prepared in buffer A (50 mM Hepes pH 7.4, 250 mM NaCl, 1 mM MgCl₂, 1% Triton X-100, protease inhibitor mixture, 1 mM PMSF, 2 mM Na₃VO₄) were incubated overnight at 4° C. with either rabbit polyclonal anti-GFP antibodies (2 μg) or mouse monoclonal anti-T7 antibodies (1 μg). Protein A/G-Sepharose (50% v/v) was then added for 1.5 h at 4° C. Immune complexes were collected, washed three times with buffer B (50 mM Hepes pH 7.4, 150 mM NaCl, 1 mM MgCl₂, 0.2% Triton X-100, protease inhibitor mixture, 1 mM PMSF, 2 mM Na₃VO₄), and resuspended in 1× sample buffer, and boiled for 7 min. Proteins were resolved by SDS-PAGE and analyzed by immunoblotting with the desired antibodies.

[5] = target: T1, T7-RILP(L231A) (pEF-T7-RILP(L231A)); assay: GST-Rab12 pulldown from RBL cell lysates with GTPgammaS, anti-T7 immunoblot
Description: (§3) Bound proteins were eluted by sample buffer, and analyzed by SDS-PAGE and immunoblotting, using monoclonal antibodies directed against T7. Input=10% of total protein. A representative blot is shown. […] The results are the average pulldown±SEM derived from three independent experiments. *P[(T7-RILP/T7-RILP(L231A)]=0.0480, *P[T7-RILP/T7-RILP(E233A)]=0.0498.
(§4) Pulldown assays were performed as previously described 2. Briefly, 20 μg of GST fusion proteins or control GST immobilized on Glutathione Agarose beads were incubated for 18 hours at 4° C. with RBL cell lysates (500 μg) prepared in buffer C (50 mM Hepes pH 7.4, 150 mM NaCl, 1 mM MgCl₂, 1% TritonX100, 1 mM PMSF, protease inhibitor mixture, 2 mM Na₃VO₄) in the presence of 0.5 mM GTPγS. At the end of the incubation period, beads were sedimented by centrifugation at 5000×g for 5 minutes at 4° C., washed 4 times in buffer C with 0.2% TritonX100, and finally suspended in sample buffer, boiled for 7 minutes, and subjected to SDS-PAGE and immunoblotting. In pulldown experiments of endogenous phosphoRab12, cell lysates were prepared in buffer D (50 mM Hepes pH 7.4, 150 mM NaCl, 1 mM MgCl₂, 1% TritonX100, 1 mM PMSF, protease inhibitor mixture, 2 mM Na₃VO₄, 10 mM NaPPi and 80 mM β-glycerophosphate) and the pulldown assay was conducted in the absence of GTPγS. Beads were washed in buffer D with 0.2% TritonX100.

[6] = target: T4, T7-RILP(E233A) (pEF-T7-RILP(E233A)); assay: as above
Description: as §3, §4

[7] = target: B2; assay: co-immunoprecipitation from co-transfected RBL cell lysates, IP anti-GFP, blot anti-T7
Description: as §1, §2

[8] = target: T5, GFP-RILP-L1 (mouse RILP-like 1 in …); assay: as above
Description: as §1, §2

Molecule: GFP-Rab12 (pEGFP-C1-Rab12) (from UniProt P35283 49-291)
- incidence of cells with scattered secretory granules (NPY-mRFP), confocal microscopy of RBL cells [1]: 97%
- incidence of cells with perinuclear secretory granules (NPY-mRFP), confocal microscopy of RBL cells [2]: 99%

Molecule: B1
- fold increase in Rab12 pulldown, Ion/TPA-triggered against resting cells [3]: 4 fold

Molecule: B2
- binding result [4]: no binding

Molecule: B3
- binding result [5]: no binding
- binding result [6]: no binding

Molecule: B4
- binding result [7]: no binding
- binding result [8]: no binding
